According to the supplement of paper PMC10065799, “High-throughput profiling of sequence recognition by tyrosine kinases and SH2 domains using bacterial peptide display” (eLife, 2023):

Key:
Jak2 = Jak2 (UniProt O60674); assay: phosphorylation enrichment, bacterial display (enrichment ratio); higher = better substrate or ligand; peptides without Tyr show the background
EPHB1 = EPHB1 (UniProt P54762); assay: as above
c-Src = assay: as above
Fyn = Fyn (UniProt P06241); assay: as above
EPHB2 = EPHB2 (UniProt P29323); assay: as above
EPHB2, sequence (P29323 whole entry, looked up): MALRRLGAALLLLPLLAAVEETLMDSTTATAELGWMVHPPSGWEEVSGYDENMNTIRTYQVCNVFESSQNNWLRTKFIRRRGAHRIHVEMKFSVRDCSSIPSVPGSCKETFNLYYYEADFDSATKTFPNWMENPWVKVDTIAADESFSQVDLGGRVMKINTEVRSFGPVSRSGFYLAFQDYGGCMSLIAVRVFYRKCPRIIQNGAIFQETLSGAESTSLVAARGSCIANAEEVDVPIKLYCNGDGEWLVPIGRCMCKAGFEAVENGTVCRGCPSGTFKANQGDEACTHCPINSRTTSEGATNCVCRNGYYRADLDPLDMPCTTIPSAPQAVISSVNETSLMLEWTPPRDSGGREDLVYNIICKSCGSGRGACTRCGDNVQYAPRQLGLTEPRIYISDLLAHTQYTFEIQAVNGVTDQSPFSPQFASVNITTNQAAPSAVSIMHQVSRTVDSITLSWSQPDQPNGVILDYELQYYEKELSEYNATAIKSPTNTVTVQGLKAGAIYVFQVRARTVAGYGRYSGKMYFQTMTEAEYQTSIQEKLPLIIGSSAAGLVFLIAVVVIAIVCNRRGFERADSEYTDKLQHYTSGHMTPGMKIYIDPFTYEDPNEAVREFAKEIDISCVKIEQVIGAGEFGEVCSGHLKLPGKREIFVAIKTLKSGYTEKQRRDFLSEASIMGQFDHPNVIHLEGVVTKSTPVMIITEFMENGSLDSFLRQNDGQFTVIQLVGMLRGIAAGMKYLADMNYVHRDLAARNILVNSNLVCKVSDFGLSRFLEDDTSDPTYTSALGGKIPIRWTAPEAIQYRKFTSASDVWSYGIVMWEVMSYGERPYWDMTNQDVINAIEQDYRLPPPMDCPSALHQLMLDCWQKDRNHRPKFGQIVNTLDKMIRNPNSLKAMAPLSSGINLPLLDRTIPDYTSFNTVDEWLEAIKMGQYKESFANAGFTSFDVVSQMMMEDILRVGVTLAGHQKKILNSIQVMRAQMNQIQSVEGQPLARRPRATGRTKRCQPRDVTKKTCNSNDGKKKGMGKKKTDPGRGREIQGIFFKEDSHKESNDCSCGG

AncSZ = assay: as above
Fer (mouse) = assay: as above
MERTK = MERTK (UniProt Q12866); assay: as above
c-Abl (mouse) = assay: as above
Fes = Fes (UniProt P07332); assay: as above
FGFR3 = FGFR3 (UniProt P22607); assay: as above
FGFR3, sequence (P22607 whole entry, looked up): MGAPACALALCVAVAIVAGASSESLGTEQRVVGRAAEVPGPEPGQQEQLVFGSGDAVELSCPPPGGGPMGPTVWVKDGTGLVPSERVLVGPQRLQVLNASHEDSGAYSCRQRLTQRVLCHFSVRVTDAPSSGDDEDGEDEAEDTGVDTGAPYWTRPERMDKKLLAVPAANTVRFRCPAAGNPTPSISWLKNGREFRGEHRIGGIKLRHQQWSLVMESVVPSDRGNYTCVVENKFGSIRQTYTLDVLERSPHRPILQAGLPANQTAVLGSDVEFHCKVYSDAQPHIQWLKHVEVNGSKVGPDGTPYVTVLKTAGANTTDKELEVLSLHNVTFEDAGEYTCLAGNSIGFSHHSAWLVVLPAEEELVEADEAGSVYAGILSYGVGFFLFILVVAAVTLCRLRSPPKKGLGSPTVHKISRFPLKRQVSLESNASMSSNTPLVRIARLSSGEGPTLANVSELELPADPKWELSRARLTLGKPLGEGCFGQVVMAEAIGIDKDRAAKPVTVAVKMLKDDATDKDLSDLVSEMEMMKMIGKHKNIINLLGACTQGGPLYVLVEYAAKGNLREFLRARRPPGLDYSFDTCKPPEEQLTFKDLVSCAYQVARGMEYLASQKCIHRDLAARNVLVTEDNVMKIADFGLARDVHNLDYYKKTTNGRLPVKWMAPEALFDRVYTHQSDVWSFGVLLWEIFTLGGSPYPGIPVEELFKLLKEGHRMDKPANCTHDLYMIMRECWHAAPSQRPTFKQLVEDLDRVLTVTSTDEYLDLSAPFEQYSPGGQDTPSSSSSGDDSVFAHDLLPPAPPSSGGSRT

Hck = Hck (UniProt P08631); assay: as above
Hck, sequence (P08631 whole entry, looked up): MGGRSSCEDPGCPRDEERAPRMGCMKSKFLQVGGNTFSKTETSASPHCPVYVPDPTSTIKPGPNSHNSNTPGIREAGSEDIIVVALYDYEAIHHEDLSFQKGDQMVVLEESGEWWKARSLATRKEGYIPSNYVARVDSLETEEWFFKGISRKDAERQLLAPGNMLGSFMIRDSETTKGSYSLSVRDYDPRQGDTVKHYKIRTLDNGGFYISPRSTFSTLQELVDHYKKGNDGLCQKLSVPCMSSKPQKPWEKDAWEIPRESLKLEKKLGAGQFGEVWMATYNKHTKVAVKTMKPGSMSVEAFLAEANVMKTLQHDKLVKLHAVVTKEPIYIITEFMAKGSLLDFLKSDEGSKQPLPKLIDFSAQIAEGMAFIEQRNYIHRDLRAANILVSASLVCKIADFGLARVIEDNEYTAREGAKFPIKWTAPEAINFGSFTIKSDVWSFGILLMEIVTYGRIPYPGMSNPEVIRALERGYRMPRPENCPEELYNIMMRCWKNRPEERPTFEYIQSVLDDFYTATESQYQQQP

FGFR1 = FGFR1 (UniProt P11362); assay: as above
FGFR1, sequence (P11362 whole entry, looked up): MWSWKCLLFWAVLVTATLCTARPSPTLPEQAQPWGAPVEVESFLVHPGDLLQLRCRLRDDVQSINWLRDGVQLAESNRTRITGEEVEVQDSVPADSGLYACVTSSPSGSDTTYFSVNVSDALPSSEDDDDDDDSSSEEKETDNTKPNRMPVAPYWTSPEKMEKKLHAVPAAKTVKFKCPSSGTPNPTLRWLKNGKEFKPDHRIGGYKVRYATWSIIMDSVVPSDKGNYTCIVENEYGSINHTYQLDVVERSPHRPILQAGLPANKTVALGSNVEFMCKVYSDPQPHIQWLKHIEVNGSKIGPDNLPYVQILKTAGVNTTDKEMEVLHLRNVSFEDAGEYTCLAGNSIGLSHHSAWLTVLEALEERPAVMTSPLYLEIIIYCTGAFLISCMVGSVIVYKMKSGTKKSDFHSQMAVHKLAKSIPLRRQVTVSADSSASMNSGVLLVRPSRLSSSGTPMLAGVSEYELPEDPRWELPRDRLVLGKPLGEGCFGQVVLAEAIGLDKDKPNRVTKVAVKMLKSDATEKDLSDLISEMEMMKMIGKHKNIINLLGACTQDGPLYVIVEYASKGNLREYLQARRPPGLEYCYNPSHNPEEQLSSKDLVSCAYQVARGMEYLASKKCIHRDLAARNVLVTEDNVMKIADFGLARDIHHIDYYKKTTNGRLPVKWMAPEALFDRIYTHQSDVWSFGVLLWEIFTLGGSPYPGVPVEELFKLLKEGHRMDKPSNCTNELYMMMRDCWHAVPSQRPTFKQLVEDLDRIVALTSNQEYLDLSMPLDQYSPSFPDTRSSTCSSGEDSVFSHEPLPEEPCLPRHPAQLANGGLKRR

Grb2 SH2 = Grb2 SH2 (UniProt P62993); assay: SH2 binding enrichment of the phosphorylated peptide, bacterial display (enrichment ratio); higher = better substrate or ligand; peptides without Tyr show the background
SHP2-C SH2 = assay: as above
c-Src SH2 = assay: as above
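For SH2 binding enrichment of the phosphorylated peptide, bacterial display in this document: peptide library displayed on the E. coli surface as eCPX fusions, selected cells deep-sequenced, score is each peptide's frequency after selection divided by its frequency in the input.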
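For phosphorylation enrichment, bacterial display in this document: 11-residue human phosphosite peptides and single-mutation variants displayed on the E. coli surface, counted by deep sequencing, each peptide's frequency after selection divided by its frequency in the unselected input library; frequency after pTyr selection over input frequency; kinase dosed for 20-30% of maximal phosphorylation in three min.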

EPHB1, sequence (P54762 whole entry, looked up): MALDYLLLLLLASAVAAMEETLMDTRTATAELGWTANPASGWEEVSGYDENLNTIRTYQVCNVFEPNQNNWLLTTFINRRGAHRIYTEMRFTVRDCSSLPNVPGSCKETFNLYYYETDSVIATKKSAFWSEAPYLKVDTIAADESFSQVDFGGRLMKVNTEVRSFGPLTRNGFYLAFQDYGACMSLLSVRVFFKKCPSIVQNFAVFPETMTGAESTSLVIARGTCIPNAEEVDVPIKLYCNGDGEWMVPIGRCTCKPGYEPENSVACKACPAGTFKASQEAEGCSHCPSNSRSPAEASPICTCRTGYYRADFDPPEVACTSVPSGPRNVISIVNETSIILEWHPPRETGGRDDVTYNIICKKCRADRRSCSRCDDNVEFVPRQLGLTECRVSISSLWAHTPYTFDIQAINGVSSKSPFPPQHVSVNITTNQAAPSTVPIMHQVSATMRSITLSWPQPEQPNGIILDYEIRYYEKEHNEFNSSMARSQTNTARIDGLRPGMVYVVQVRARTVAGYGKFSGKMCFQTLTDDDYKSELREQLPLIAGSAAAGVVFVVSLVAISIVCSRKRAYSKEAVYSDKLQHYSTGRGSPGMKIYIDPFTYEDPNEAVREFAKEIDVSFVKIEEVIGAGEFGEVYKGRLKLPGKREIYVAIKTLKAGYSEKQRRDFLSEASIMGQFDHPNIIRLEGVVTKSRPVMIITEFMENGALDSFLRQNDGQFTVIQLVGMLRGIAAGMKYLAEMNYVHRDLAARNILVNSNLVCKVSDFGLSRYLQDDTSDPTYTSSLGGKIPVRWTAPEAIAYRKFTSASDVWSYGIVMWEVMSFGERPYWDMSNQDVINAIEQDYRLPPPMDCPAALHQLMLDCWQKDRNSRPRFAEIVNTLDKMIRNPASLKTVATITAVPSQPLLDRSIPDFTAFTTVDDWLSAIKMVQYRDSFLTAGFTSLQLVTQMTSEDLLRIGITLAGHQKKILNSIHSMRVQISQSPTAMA
Fyn, sequence (P06241 whole entry, looked up): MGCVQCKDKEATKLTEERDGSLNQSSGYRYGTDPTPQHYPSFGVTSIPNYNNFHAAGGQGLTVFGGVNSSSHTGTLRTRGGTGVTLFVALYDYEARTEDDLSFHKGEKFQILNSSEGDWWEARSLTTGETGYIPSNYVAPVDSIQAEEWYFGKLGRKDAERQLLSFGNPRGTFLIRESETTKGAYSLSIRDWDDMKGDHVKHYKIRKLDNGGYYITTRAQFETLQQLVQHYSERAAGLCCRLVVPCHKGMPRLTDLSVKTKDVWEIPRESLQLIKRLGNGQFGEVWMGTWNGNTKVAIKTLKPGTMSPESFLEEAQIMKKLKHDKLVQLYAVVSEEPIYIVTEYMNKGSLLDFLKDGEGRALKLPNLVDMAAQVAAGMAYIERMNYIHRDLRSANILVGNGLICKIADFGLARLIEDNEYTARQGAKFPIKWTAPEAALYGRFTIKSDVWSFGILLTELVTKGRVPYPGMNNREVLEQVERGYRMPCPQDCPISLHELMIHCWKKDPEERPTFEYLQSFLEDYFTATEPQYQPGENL

Sequence | SH2 binding enrichment (Grb2 SH2) | SH2 binding enrichment (SHP2-C SH2) | SH2 binding enrichment (c-Src SH2) | phosphorylation enrichment (Jak2) | phosphorylation enrichment (EPHB1) | phosphorylation enrichment (c-Src) | phosphorylation enrichment (Fyn) | phosphorylation enrichment (EPHB2) | phosphorylation enrichment (AncSZ) | phosphorylation enrichment (Fer (mouse)) | phosphorylation enrichment (MERTK) | phosphorylation enrichment (c-Abl (mouse)) | phosphorylation enrichment (Fes) | phosphorylation enrichment (FGFR3) | phosphorylation enrichment (Hck) | phosphorylation enrichment (FGFR1)
SYPREYGSQEG [RBM10_Y48] | 0.852 | 0.76 | 0.546 | 0.673 | 0.515 | 0.413 | 0.424 | 0.487 | 0.756 | 0.414 | 0.409 | 0.586 | 0.826 | 0.519 | 0.477 | 0.47
TAPYNYSYIFK [RAB14_Y8] | 1.4 | 1.79 | 13.7 | 0.561 | 9.69 | 0.772 | 0.354 | 3.26 | 1.03 | 1.59 | 6.78 | 0.717 | 0.735 | 1.21 | 1.14 | 1.74
TDGNGYISFNE [LCP1_Y28] | 0.922 | 1.98 | 36 | 0.824 | 0.476 | 0.603 | 0.454 | 0.485 | 0.923 | 0.489 | 0.412 | 0.624 | 1.13 | 0.752 | 0.458 | 0.546
TENAGYYFRIS | 0.574 | 0.801 | 0.736 | 1.71 | 0.588 | 0.41 | 0.477 | 0.576 | 1.44 | 0.453 | 0.433 | 0.763 | 1.75 | 0.816 | 0.475 | 0.575
TETGRYEILTE | 0.772 | 0.426 | 17.2 | 0.658 | 0.532 | 0.44 | 0.387 | 0.466 | 0.742 | 0.354 | 0.421 | 0.389 | 0.765 | 0.427 | 0.517 | 0.543
TFEPNYGTVKR [RAPGEF6_Y1447_Q1452R_YF] | 0.982 | 0.687 | 0.514 | 0.497 | 0.55 | 2.66 | 3.76 | 1.45 | 0.707 | 0.701 | 0.385 | 0.691 | 0.586 | 0.45 | 2.72 | 0.448
TGSFTCEAVEL [MTMR14_Y462_Y462C] | 0.888 | 0.676 | 0.576 | 0.892 | 0.661 | 0.483 | 0.65 | 0.659 | 1.19 | 0.619 | 0.419 | 0.77 | 1.24 | 0.811 | 0.573 | 0.529
TKDTFYKQPMV [GBA_Y451_F456V] | 0.781 | 0.689 | 0.403 | 0.729 | 0.421 | 0.395 | 0.358 | 0.585 | 0.726 | 0.38 | 0.407 | 1.03 | 0.914 | 0.512 | 0.348 | 0.355
TKQLTYEEQYL [PIK3C3_Y310_D314Y] | 0.894 | 0.747 | 0.538 | 1.37 | 0.551 | 0.732 | 0.45 | 0.603 | 0.95 | 0.965 | 0.593 | 0.825 | 1.18 | 0.766 | 0.524 | 0.434

Further lines, with some results ahead:

SH2 binding enrichment (Grb2 SH2) | SH2 binding enrichment (SHP2-C SH2) | SH2 binding enrichment (c-Src SH2) | Sequence | phosphorylation enrichment (Jak2) | phosphorylation enrichment (EPHB1) | phosphorylation enrichment (c-Src) | phosphorylation enrichment (Fyn) | phosphorylation enrichment (EPHB2) | phosphorylation enrichment (AncSZ) | phosphorylation enrichment (Fer (mouse)) | phosphorylation enrichment (MERTK) | phosphorylation enrichment (c-Abl (mouse)) | phosphorylation enrichment (Fes) | phosphorylation enrichment (FGFR3) | phosphorylation enrichment (Hck) | phosphorylation enrichment (FGFR1)
0.569 | 0.638 | 0.397 | SVTCTYSPALY [TP53_Y126_N131Y] | 1.33 | 0.808 | 1.21 | 1.27 | 0.786 | 1.76 | 0.695 | 0.495 | 0.91 | 1.71 | 0.929 | 0.932 | 0.523
0.862 | 0.705 | 0.457 | SVTFTYSPALN [TP53_Y126_C124Y_YF] | 0.991 | 0.502 | 0.392 | 0.424 | 0.554 | 1.08 | 0.465 | 0.336 | 0.675 | 1.21 | 0.697 | 0.453 | 0.392
0.76 | 0.717 | 0.453 | SVTYTYSPALN [TP53_Y126_C124Y] | 0.997 | 0.95 | 0.998 | 0.967 | 0.87 | 1.5 | 0.621 | 2.79 | 1.78 | 1.16 | 1.34 | 1.17 | 1.24
0.79 | 0.808 | 1.26 | SVVVPYEAPEV [TP53_Y220_P222A] | 0.998 | 0.649 | 0.405 | 0.442 | 0.485 | 1.2 | 0.546 | 0.969 | 0.79 | 1.01 | 0.8 | 0.492 | 0.483
0.829 | 0.532 | 0.415 | SVVVPYEPREV [TP53_Y220_P223R] | 0.746 | 0.53 | 0.472 | 0.473 | 0.506 | 0.813 | 0.465 | 0.373 | 0.656 | 0.998 | 0.597 | 0.453 | 0.527
0.69 | 0.531 | 0.413 | TFGQVYKGPHV [TNIK_Y40_R43P_YF] | 0.608 | 0.403 | 0.433 | 0.493 | 0.454 | 0.59 | 0.466 | 0.381 | 0.537 | 0.751 | 0.426 | 0.448 | 0.47
0.893 | 1.24 | 0.752 | TFGQVYKGRHV [TNIK_Y40_YF] | 0.598 | 0.401 | 0.437 | 0.39 | 0.367 | 0.524 | 0.33 | 0.34 | 0.555 | 0.545 | 0.368 | 0.406 | 0.347
